In patent US20230104578A1 (ADRENOMED, published 2023):
Like-named read-outs stand apart in the source and are kept apart here. Blank lines part the entries; values can stand above or below the binder they belong to. Ends that are not written are not given here.

How the values were obtained:
[1] = molecular target: T1, human recombinant adrenomedullin receptor (CRLR+RAMP3) (human); assay: cell-based or functional assay
[2] = molecular target: T1, human recombinant adrenomedullin …; assay: cell-based or functional assay; remark: listed apart in the source

T1 sequence (Q16602 whole entry, chain 1 of 2): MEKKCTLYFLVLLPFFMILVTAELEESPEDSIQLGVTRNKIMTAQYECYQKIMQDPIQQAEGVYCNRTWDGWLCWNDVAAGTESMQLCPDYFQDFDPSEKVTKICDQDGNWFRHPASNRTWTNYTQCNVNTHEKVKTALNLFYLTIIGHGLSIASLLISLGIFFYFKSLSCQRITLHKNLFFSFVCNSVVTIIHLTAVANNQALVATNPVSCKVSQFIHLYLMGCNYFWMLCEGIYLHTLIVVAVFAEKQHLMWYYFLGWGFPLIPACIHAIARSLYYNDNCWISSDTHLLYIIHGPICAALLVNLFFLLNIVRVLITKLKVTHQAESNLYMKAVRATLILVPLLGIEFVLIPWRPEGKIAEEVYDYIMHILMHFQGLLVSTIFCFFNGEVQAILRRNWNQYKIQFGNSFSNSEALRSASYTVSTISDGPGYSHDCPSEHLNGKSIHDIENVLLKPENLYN
T1 sequence (O60896 whole entry, chain 2 of 2, further chain): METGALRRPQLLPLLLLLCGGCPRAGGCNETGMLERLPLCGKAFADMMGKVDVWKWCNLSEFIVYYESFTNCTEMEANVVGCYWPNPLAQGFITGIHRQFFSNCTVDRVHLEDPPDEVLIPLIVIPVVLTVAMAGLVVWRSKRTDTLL

EC50 (read off the curve); cAMP (HTRF), % activation [1]: ~0.08 nM
Binder: YRQSMNQGSRSNGCRFGTCTFQKLAHQIYQLTDKDKDGMAPRNKISPQGY-NH2 (ends and bridges not checked) [Murine ADM 1-50]

EC50 (read off the curve); cAMP (HTRF), % activation [2]: ~1 nM
B1: mature human Adrenomedullin (amino acids 1-52) (peptide)
peptide: YRQSMNNFQGLRSFGCRFGTCTVQKLAHQIYQFTDKDKDNVAPRSKISPQGY-NH2
modifications: ends and bridges not checked
